Experimental data taken from the nanobody polyreactivity screen of Harvey et al. (2022).

experiment: yeast display, Sf9 membrane polyspecificity reagent, FACS + sequencing; frameworks hold sequencing errors
Procedure, shortened: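 A synthetic nanobody library was expressed on Saccharomyces cerevisiae BJ5465 by galactose induction for 36–48 hours. The library was stained for 1 hour at 4 °C with 10% biotinylated, detergent-solubilized Sf9 membrane reagent and enriched with streptavidin microbeads before FACS. Low and high (top ~1%) gates were set on anti-HA fluorescence for expression and streptavidin fluorescence for reagent binding, and each polyreactivity label reflects the gate of origin.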

Row | Sequence | polyreactivity (PSR sort gate)
1 | QVQLVESGGGLVEAGGSLRLSCAASGSTINYNAMGWYRQAPGKERELVAAIDSGVSTNYADSVNGRFTISRDNAKNTVYLQMNSLKPEDTAVYYCAVGGAGSDDYWGQRTQVTVSS | low polyreactivity
2 | QVQLVESGGGLVEAGGSLSLSCAASGSTFYKYSMGLYRQAPGKESELVAAITGSGVSTYYADSVKGRFTMSRDNAKNTVYLQMNSLKPDDTAVYYCNAESRSRPYTSSYDYWGQGTQVTVSS | high polyreactivity
3 | QVQLVESGGGLVEPGGSLRLSFASSGRTYQFYVMGWSRQAPGKERELVASIRSGGSTNYADSVKGRFTISRDNAKNTVYLLMNSLKPEDTALYYCAARVASPYYRYVYWGKGTQVTVSS | low polyreactivity
4 | QVQLVESGGGLVHAGCSLRLSCDASGRIFKNYAMGWYRQAPGKERELVAAISWSGGRTYYADSVKGRFTISRDYAKNTVYLQMHRLKPEDTEVYYCATAARRGPTSIEPFGYGSWGQGTQVTVSS | high polyreactivity
5 | QVQLVESGGGLVHAGGCLRLSFAASGFIFVVNPMGWYRPAPGKERELVAAINTSRGSTSYADSVKGRFTISRDNAKNTVYLQMNSVKPEDNAVYYCARDVWEKYRQSWGYVPLQGYDYCGQGTQVTVSS | low polyreactivity
6 | QVQLVESGGGLVHAGGPLRLSCAASGGIFFSYAMGWYRQAPGKERELVAAIRTNGGTTYYADSVKGRFTISRDNAKNTVYLHMNSLKPEETAVYDCAALPGGYYDRGEYDYWGQGTQVTVSS | low polyreactivity
7 | QVQLVESGGGLVHAGGRLRLSCAASGRTFVSYVMGWYRQAPGKERELVAAISGNGGRTYYADSVKGRFTISRDNAKNTVYLQMNSLKPEDTAVYYCAAELFVSYFDVLMYYWGQGTQVTVSS | high polyreactivity
8 | QVQLVESGGGLVHAGGSIRLSCAASGSIFRLYAMGWYRQAPGKERELVATISQRGGRTYYADSVKGRFTISRDNAKNTVYLQMNILKPEVTAVYYCNADHYYPWLDYWGLGTQVTVSS | high polyreactivity
9 | QVQLVESGGGLVHAGGSLRISCAASGRTFWVYAMGWYRKAPGKERELVAAISWSGGRTYYADSVKGRFTISRDNAKNTVYLQMNSLKPEDTAVYYCAATTGVRSRRYYYWGQGTQVTVSS | low polyreactivity
10 | QVQLVESGGGLVHAGGSLRLSCAAAGFTFTYYTMGWYRKAPGKERELVAAITENGGSTYYADSVKWRFTISRDNAKNTVYLQMKSLKPEDPAVYYCNARVWDYGGHGYDYWGQGTQVTVSS | low polyreactivity
11 | QVQLVESGGGLVHAGGSLRLSCAASGFIFFSNAMGWYRQAPGKERELVATISTSSGSTYADSVKGRFTNSRDNAKNTVYLQMNSLKPEDTAVYYCAADTQGYDYDYWGQGTQVTVSS | low polyreactivity
12 | QVQLVESGGGLVHAGGSLRLSCAASGFIFPYYAMGWYRQAPGKERELVAAITSGGSTNYADSVKGRFTISRDNAKNTVYLQMNSLKPEDTAVYYCAKRLKRWSVYGRYDYWGQGTQVTVSS | high polyreactivity
13 | QVQLVESGGGLVHAGGSLRLSCAASGFIFYYYTMGWYRQAPGKEREFVAAISSSGTITYYADSVKGRFTISRDNAKNTVYLQMNSLKPEDTAVYYCNAELYYPYEFWRFSGYDYWGQGTQVTVSS | low polyreactivity
14 | QVQLVESGGGLVHAGGSLRLSCAASGFSFNTYAMGWYRQAPGKERELVADISSGGSTNYADSVKGRFTISRDNAKNTVFLQMNSLKPEDTAVYYCSADYYFLDWYDYWGQGTQVSVSS | low polyreactivity
15 | QVQLVESGGGLVHAGGSLRLSCAASGFTFYYNDMGWYRQAPGKERELVAAIRWSGGNTYYADSVKGRFKISRDNAKNTVYLQMNSLKPEDTAVYYCSAGTQWYSQVYIYYYWGQGTQVTVSS | low polyreactivity
16 | QVQLVESGGGLVHAGGSLRLSCAASGGIYWYYAMGWYRQAPGKERELVAAISITDGSTYYADSVKGRFTISRDKAKNTVYLQMNSLKPEDTAVYYCAAEEEEYIYDYWGQGTQVTVSS | high polyreactivity

Row | Sequence | polyreactivity (PSR sort gate)
17 | QVQLVESGGGLVHAGGSLRLSCAASGIIFVLHAMGWYRQAPGQERELVASISGIGGSTYYADSEKGRFTISRDNAKNTVYLQMNSLKPEDTAVYYCAARGWLSRYGYWGHGTQVTVSS | high polyreactivity
18 | QVQLVESGGGLVHAGGSLRLSCAASGIIFYLYAMGWYRQAPGKERELVAAISRRGVSTYYADSVKGRFTISRDNAKNTVYLQMNSLKTEDTAVYYCAAAGFGYTGEEYWGQGTQVTVSS | high polyreactivity
19 | QVQLVESGGGLVHAGGSLRLSCAASGINFFPYAMGWYRQAPGKERELVASINISDSSTYYADSVKGRFTISRDNAKNTVYLQMNSLKPEDTAVYYCAADNRGDSWYWHGYWGQGTQVSVSS | low polyreactivity
20 | QVQLVESGGGLVHAGGSLRLSCAASGLTFAYNTMGWYRQAPGKEREFVASISSSGGNTYYADSVKGRFTISRDNAKNTVYVQMNSLKPEDTAVYFCAAKKKYHYVASYKRFEYWGQGTQVTVSS | low polyreactivity
21 | QVQLVESGGGLVHAGGSLRLSCAASGRIFNYYAMGWYRQAPGKERALVAAISSGGSTYYADSEKGRFTISRDNAKNTVYLQMHSLKPEDTAVDYCNRVPRGVSRQDDYWGQGTQVTVSS | high polyreactivity
22 | QVQLVESGGGLVHAGGSLRLSCAASGRIFPSYAMGWYRQAPGKERELVAAISYSGASTYYADSVKGRFTISRDNAKNTVYLQMNSLKPEDTAVYYCATDHESVRVLVSSTSDYDYWGQGTQVTVSS | low polyreactivity
23 | QVQLVESGGGLVHAGGSLRLSCAASGRIFRRYAMGWYRQAPGKERELVASISSGGSTNYADSLKGRFTISRDNAKNTVYLQMNSLNPEDTAVYYCNVYYGYFRSRYCYWGQGTQVTVSS | high polyreactivity
24 | QVQLVESGGGLVHAGGSLRLSCAASGRIFTIYAMGWYRQAPGKERELVAAISDRGTRTYYADSVKGRFTISRDNAKNTVYLQMNSLKPEETAVYYCATDALYTYGYDYWGQGTQVTVSS | low polyreactivity
25 | QVQLVESGGGLVHAGGSLRLSCAASGRIFYQYAMGWYRQAPGKERELVAAIRYRDDGTYYADSVKGRLTISRDNAKNTVYLQMNSLKPEDTAVYYCAGKQWGRYGYWGQGTQVTVSS | high polyreactivity
26 | QVQLVESGGGLVHAGGSLRLSCAASGRILVDYAMGWYRQAPGKERELVAAITSTGGTTYYADSVKGRFTISRDNAKNTVYLQMNSLKPEDTAVYYCAAKRQDSWGGTYGYWGQGTQVTVSS | low polyreactivity
27 | QVQLVESGGGLVHAGGSLRLSCAASGRISFYYALGWYRQAPGKERALVATISRGDITYYADSVKGRFTISRDNAKNTVYLQLNSLKPEDTAVYYCNARNNYWWYGPGYVYWGQGTQVTVSS | low polyreactivity
28 | QVQLVESGGGLVHAGGSLRLSCAASGRTFASYAIGWYRQAPGKERELVARISKSGGSTYYADSVKGRFTISRDNAKNTVYLQMNSLKPEDTAVYYCAATRYPYLYRSEVGSDYWGQGTQVTVSS | low polyreactivity
29 | QVQLVESGGGLVHAGGSLRLSCAASGRTFIRYAMGWYIQAPGKERQLVAAISSSGGSTYYADSVKGRFTISRDNAKNTVYLQMNSLKPEDTAVYYCNAYVYYSHEDDYWGQGTQVTVSS | high polyreactivity
30 | QVQLVESGGGLVHAGGSLRLSCAASGRTFKYYGMGWYREAPGKERELVATISRSSSRTYYADSVKGRFTISRDNAKNTVYLQMNSLKPEDTAVYYCAADRWGARRKQYDENGYWGQGTQVTVSS | high polyreactivity
31 | QVQLVESGGGLVHAGGSLRLSCAASGRTFNGYVMGWYRQAPGKERELVAAITNRDGSTYYADSVKGRFTISRDNAKNTVYLQMYSLKPEDSAVYYCAAPVWLWADRYDSWGQGTQVTVSS | low polyreactivity
32 | QVQLVESGGGLVHAGGSLRLSCAASGRTFYYNAKGWYRQAPGKESELVAAISSGDSTYYADSVKGRFTISRDNAKNTVSLQLNSLKPEDTAVYYCYADTGLGSLDFDKRDYWGQGTQVTVSS | low polyreactivity
